assay: soluble on expression in E. coli; label from the status in PepcDB or PDB records

Sequence	soluble on expression in E. coli
MARINRISITLCALLFTTLPLTPMAHASKQARESSATTHITKKADKKKSTATTKKTQKTAKKAASKSTTKSKTASSVKKSSITASKNAKTRSKHTVNKTASASLTEKCTKRKGYKSHCVKVKNAASGTLADAHKAKVQKATKVAMNKLMQQIGKPYRWGGSSPRTGFDCSGLVYYAYKDLVKIRIPRTANEMYHLRDAAPIERSELKNGDLVFFRTQGRGTADHVGVYVGNGKFIQSPRTGQEIQITSLSEDYWQRHYVGARRVMTPKTLR	soluble
MARKGTTPWHESREMHTQDDADSSLKEQEKTTNKKEQTTAPPEKKLPTIPGKLPKRSVEPPEESRDQKPAGNKPNLKKSPSNPRIPPGGSHPRKKPKVPNRDPSGKHVNSDKKKPSAEAHDKESLSSPPQTDAGKETTKESASTYGASWKSSKPTLKADLKAMEDYITKMPNFHGYICREDAAQILKHPGDWLVRLSVPPSNDQDKKNKAQNLAKSVERTKGHKSTMQKVFVISVLCKGKALSPAKSNNRNLVIKTNNGKFSIDSVHWLVKLKDLFSHYQGTSAVHKNGEFQLLNPISLSKWEFQHEDTELLAKKLGEGAFGEVRVGRLTTKDPKKKLVEVAVKMLKSSADSVTRDQVEELLHETRIMRKLDHPNVLRSYGVAVLREPLYLMIELCSNGALREYLKENHKTITLADKINFVLGSARGVAYLHSQRILHRDLAVRNILLTEDKTPKVSDFGLAELTDRYEMKEHCKIPVRYLAPETLELFIFTPKTDVFSFGCVIWEIYENGQQPHDGKNAQTIRAQVKKREFLKLSSSAPEALRRLVAEKVFVADPENRCSMTSIVQCVETAEKTVK	soluble
MARKVIDVRIVNAATAEQESFIKELSMELIHDVFPLYFSELDIQRLKKKGVLSLNNHYYQGTLKEAFQIMACLQMIHIILTKPSPHSDLSDQAIFEKNSKMLNDFGIYFPFAFSDFQKKTNKAFFGQRRLILEHHHHHH	not soluble
MARSQLSAAGEQHVIQLNQQGGKNLFCFPPISGFGIYFKDLALQLNHKAAVYGFHFIEEDSRIEQYVSRITEIQPEGPYVLLGYSAGGNLAFEVVQAMEQKGLEVSDFIIVDAYKKDQSITADTENDDSAAYLPEAVRETVMQKKRCYQEYWAQLINEGRIKSNIHFIEAGIQTETSGAMVLQKWQDAAEEGYAEYTGYGAHKDMLEGEFAEKNANIILNILDKINSDQKVLPNKHGSHHHHHH	soluble
MARTAVPDNQPEITGFRIVLNNFEGPFDLLLQLISAKKLDVTDVALHKVTDDFVAYTRALGEFAELDEVTEFLVVAATLLDLKAARLLPRGEVDDLSDLELLESRDLLFARLLQYKAYKQVADQFARWQLAAQRRYPRAVGMEEQFSSLLPPVKISHTPKSFAELAASVFRPKPPDTVGTSHVHGVEVSVPEQAGKVLDLLVECGEGVWMDFPDLITGCRVSLEVVGRFLALLELYKARAVSLEQEESLGALRVSWTGIHVDPAIVAASNWA	not soluble
MARTRSADYENIRDTIIERAAAMFARQGYSETSIGDIARACECSKSRLYHYFDSKEAVLRDMLTTHVDSLLERCRQVLYGSNEPKTRFLQIVKLFLEIYATSRDRHVVMLTCLDALPEDQRKALIAKQRELIAYVRDALLQLRPDMAANRTLAHVDTMLFFGMINWTYTWYKADGSVSPDALAERTVQLFLDGYLNLLSA	soluble
MASCHEPSAFKSLCAHPSTLTATFDVSPYSSAFHLPIHPALLSNTHLLHLNTYNPTTYESTERLFEQNNNNSEKAESCSSRDSSHDSSSPTSTGGSSRDNVIVRNELKRKKDQVKDVAYWERRRKNNDAAKRSRDQRRMKEDEMAHRATSLERENMLLRVELDQLRAETDKLRALILTTPTTSISIPIPLQSLPLLTAQTAPASSVITTSQMYAPLPLKIPKTPSPSLLRSTVLVSNSSKT	not soluble
MASDDEEDFTQLQINQNRKHKKAGGWQQIGLDHSVYKAIEKKGFNQPTPIQRKTIPCIMDGKDVVAMSRTGSGKTAAFVIPMLQKLKRRDTTGIRALMVSPTRELALQTFKVVKELGRFTGLRCACLVGGDQIEEQFSTIHENPDILLATPGRLLHVIVEMDLRLSYVQYVVFDEADRLFEMGFQDQLTETLKRIPESRQTLLFSATLPKMLVDFAKAGLTDPMLVRLDVDEKVSDKLSMVFCMCRPDEKLFALLHLCRNFCFKKLLETSLKKCKISKKKVPLLKKVRMDRENKQTVVFCATMKHVEYVVGILHRAGIDCSFVYSQLDATARKMNIQKFHEKQNNILVVTDVAARGVDIPLLDTVINLHFPPKAKLFVHRVGRVARAGRSGTAISLIANDELPYLTDLFMFLGKPINFASDKSEYKEDETLIGRVPDSIVSLETEFFHSIHDNNEDMQDLRQKATNAMMKYTRTRPPPSAESARRVKQDIRTDSVECAPHPFLKADGDKQSNDILNKISQYKSRNTIFEMNKSQKSQALAVMQAKRKAHEPRISTVTEEKRKQKEEKEQQQKSTDIAVEIAEKTVENAGEDELAEVFGTVIGSTKHTEKSEEKGGKKRKIGTGKRIDRAEQMKFEREKHYVPYMSSDHVAERHLALDTVDFARQAEGASVDIIMDDDRGMYQQKHGQRWDRRLKKYVGLSGGNEPANKKIRTEDGTWLPASYKTGKYEDWKQKQKIGFKKSDGGGDDGDNEGSGGMDRKRKWKMEKPKGGPKHSELKNKEQILKGRRKQEQLENYMEHRRQSNLKKKAEHLGRGGAGGARGGARGGARGGARGGSSRGARGGARGGGKFGNRR	not soluble
MASDPITTQEFSPRQNAVLDQALRLLVEGGEKALTTSGLARAANCSKESLYKWFGDRDGLLAAMITFQQSKVRTFEKAGDRVSAPQLADHLEVFAHDLLDVLAGDVSLALNRLAIGQASRDGSKLGDLLLERGRRQIDRRARGLIEAGRRSGYLRFDDAEEAYRSFYGLIVSDLHVRMLLGEAPDKDFSARAKKAVVAFLTLYGTEKVHSELGGKVA	soluble
MASEPIQITPNLAIPPGEIVERFVRASGAGGQNVNKVSTAVELRFDVAGSPSLPEPLRARLLSRRDRRMTADGVLVIDAQRFRTQDRNREDARERLAEIINACLSVPKRRVATKPSHGAKLRRLDAKRERSQIKRGRSASHWELEHHHHHH	soluble
MASINLIKSLKLYKEKIWSFDFSQGILATGSTDRKIKLVSVKYDDFTLIDVLDETAHKKAIRSVAWRPHTSLLAAGSFDSTVSIWAKEESADRTFEMDLLAIIEGHENEVKGVAWSNDGYYLATCSRDKSVWIWETDESGEEYECISVLQEHSQDVKHVIWHPSEALLASSSYDDTVRIWKDYDDDWECVAVLNGHEGTVWSSDFDKTEGVFRLCSGSDDSTVRVWKYMGDDEDDQQEWVCEAILPDVHKRQVYNVAWGFNGLIASVGADGVLAVYEEVDGEWKVFAKRALCHGVYEINVVKWLELNGKTILATGGDDGIVNFWSLEKAA	soluble
MASKYAVKLKTDFDNPRWIKRHKHMFDFLDINGNGKITLDEIVSKASDDICAKLEATPEQTKRHQVCVEAFFRGCGMEYGKEIAFPQFLDGWKQLATSELKKWARNEPTLIREWGDAVFDIFDKDGSGTITLDEWKAYGKISGISPSQEDCESTFRHCDLDNAGDLDVDEMTRQHLGFWYTLDPEADGLYGNGVP	soluble
MASLLTETMPFRMTMEGTVNGHHFKCTGKGEGNPFEGTQDMKIEVIEGGPLPFAFDILSTSC	soluble
MASMPSRTALSPGVLSPTRPVPNWIARPEYVGKPAAQEGSEPWVQTPEVIEKMRVAGRIAAGALAEAGKAVAPGVTTDELDRIAHEYLVDNGAYPSTLGYKGFPKSCCTSLNEVICHGIPDSTVITDGDIVNIDVTAYIGGVHGDTNATFPAGDVADEHRLLVDRTREATMRAINTVKPGRALSVIGRVIESYANRFGYNVVRDFTGHGIGTTFHNGLVVLHYDQPAVETIMQPGMTFTIEPMINLGALDYEIWDDGWTVVTKDRKWTAQFEHTLLVTDTGVEILTCL	soluble
MASQTQGIQQLLAAEKRAAEKINEARKRKLQRTKQAKQEAQAEVEKYKQQREAEFKAFEQQYLGTKEDIESKIRRDTEDQISGMKQSVAGNKQAVIVRLLQLVCDIKPELHHNLTLQKKLHGQFAA	not soluble
MASRETILDVLAKLEECKETLNNSLNYDEAANSNGSSTFQDQSEIKIEHIAPNLVFENGTVPQEQSNSFQWYEEEVSNDACVSSNEYSGVKLCPFNIGFKSYNTPPDQMQQLDKSISDNMACRMNVDFSGIDRLIQHGSEDMRTVGYGMRGMMKLLQIQHEKLMGKKPDDVTTGLKASLVPARFLKEKTVIVRNLTDDADINVNKVFGQLTAQSSSLKNIVINAANVWIKNVVPDEQRKLYSTSIKPQQPQITFPAQLLNGPAGLLVRCLSVTGGDNSSNAVNISLLFKQHVSNLFNHARSKSGITNSRKRKQQSEDYSYN	not soluble
MASTSAATPLKNKRKFENGKKKPKTLKDEFGEKLDIKPVIVPPKPADEYDYDSSDEEDLRNTIGNIPIKWYDDEDHIGYDKFGEKIAKPAKKGEIETFLEKMEDPDYWRKVFDKQTGTDVKLTDEQIEKIHNIATGKYPTIGYNPYEPFLDIFSSQKEIHPIDNRPEPKSRFIPSKDEMRMVSRMVHAIKMGWAKGPRAKKEEHKSYDLWASEDALDNVTKSQLSRMRVHMPAPKVALPTHAESYNPPEEYIFDDEERKKWEEAEKEDRVLNFMPSKYDALRKVPQYDKFITERFERCLDLYLAPRQRKMRIHADPTDLLPDLPNPNDLRPFPTTLAFYMRGHTGQVRAITVEPERGELLASGGEDGTVRIWMIATGRCIKTFQMDGEVTSVSFSPVADRTLLAVAYEGKYVAILNTGCGDRLHVQQTEALLAETPTDAQEDGAVVTWRKSKEKLMLKMPNEVRQVTWHSKGDYFASVAIDDIAKSVYVHQLSKAKSQCPFQKRKGHVQAVTFHPTQARLFVATKIHVREYDLARCVLVKKLITGCKHISTMATDANGENLFLGGLDRRFCWMDLQMGNKPWKKLKHHTAAVRSVAYHKKYPLLATVSDDGTAMVYYARIYTDFVKDNELYPVKRLRAHEKTPNDLCMLHTTWHPTQPWLITAGADGTIALFTY	not soluble
MASTSTGLPPNWTIRVSRSHNKEYFLNQSTNESSWDPPYGTDKEVLNAYIAKFKNNGYKPLVNEDGQVRVSHLLIKNNQSRKPKSWKSPDGISRTRDESIQILKKHLERILSGEVKLSELANTESDCSSHDRGGDLGFFSKGQMQPPFEEAAFNLHVGEVSNIIETNSGVHILQRTG	soluble
MASYKKERLENDIIRLINRTVIHEIYNETVKTGHVTHVKLSDDLLHVTVYLDCYNREQIDRVVGAFNQAKGVFSRVLAHNLYLAKAVQIHFVKDKAIDNAMRIESIINSLKKSKPN	soluble
MATAVVQRKGYDNVELSLSEDDDPVKEKKKSKGNEKKSSTESKSKESKETSKEEDLAQKKFLMTQKTQSMTEDEKEVKPKAPESQKPKKNSAEESNEKIKKEGSVKVETVASKVKPASSRVPPIASTPGKGSVDGEQKKKSTGCCIIL	soluble
MATDSWALAVDEQEAAAESLSNLHLKEEKIKPDTNGAVVKTNANAEKTDEEEKEDRAAQSLLNKLIRSNLVDNTNQVEVLQRDPNSPLYSVKSFEELRLKPQLLQGVYAMGFNRPSKIQENALPLMLAEPPQNLIAQSQSGTGKTAAFVLAMLSQVEPANKYPQCLCLSPTYELALQTGKVIEQMGKFYPELKLAYAVRGNKLERGQKISEQIVIGTPGTVLDWCSKLKFIDPKKIKVFVLDEADVMIATQGHQDQSIRIQRMLPRNCQMLLFSATFEDSVWKFAQKVVPDPNVIKLKREEETLDTIKQYYVLCSSRDEKFQALCNLYGAITIAQAMIFCHTRKTASWLAAELSKEGHQVALLSGEMMVEQRAAVIERFREGKEKVLVTTNVCARGIDVEQVSVVINFDLPVDKDGNPDNETYLHRIGRTGRFGKRGLAVNMVDSKHSMNILNRIQEHFNKKIERLDTDDLDEIEKIAN	soluble
MATFNLNGLGTPKSATYDNESAYRELLSRVNNGESIVVSVYTDKDNYPAFGIETKKVARFKVRVNQSLLSLLVGYLNNSTVNEDTVRANEVEPNEEGQDFTTDLFKLLIDEGFTPQIAPLFRTVYGYVNAVFNFPNGRMYFRLEHTDELMDYLADKKLL	not soluble

From the DeepSol protein solubility set
